These results are taken from PMC10049462, “Molecular Structure of Phosphoserine Aminotransferase from Saccharomyces cerevisiae” (International Journal of Molecular Sciences, 2023).

The data set deals with the molecule itself. As to the kind of experiment: crystal structure; sitting-drop vapor diffusion at 20 °C; optimized crystals from 2.4 M ammonium sulfate, 0.1 M citric acid pH 3.5; space group P3(1)21; 2.8 Å; apo form; dimer in the asymmetric unit.

B1: Saccharomyces cerevisiae phosphoserine aminotransferase (enzyme, S. cerevisiae, UniProt P33330 1-395, looked up)
chain: MSLEREEPQHFGAGPAQMPTPVLQQAAKDLINFNDIGLGIGEISHRSKDATKVIEDSKKHLIELLNIPDTHEVFYLQGGGTTGFSSVATNLAAAYVGKHGKIAPAGYLVTGSWSQKSFEEAKRLHVPAEVIFNAKDYNNGKFGKIPDESLWEDKIKGKAFSYVYLCENETVHGVEWPELPKCLVNDPNIEIVADLSSDILSRKIDVSQYGVIMAGAQKNIGLAGLTLYIIKKSILKNISGASDETLHELGVPITPIAFDYPTVVKNNSAYNTIPIFTLHVMDLVFQHILKKGGVEAQQAENEEKAKILYEALDANSDFYNVPVDPKCRSKMNVVFTLKKDGLDDQFLKEAAARHLTGLKGHRSVGGFRASIYNALSVKAVQNLVDFIKEFAEKNA
notes: Phosphoserine aminotransferase (PSAT) of S. cerevisiae, encoded by SER1; full-length gene amplified from genomic DNA and cloned into pET28a; residues 1-395 (large domain 54-293, small domain 294-395); apo form without PLP; residues 1-53, 218-220 and 268-271 not modelled in the crystal structure; they may come from different strains; also called ScPSAT; PSAT; source: E. coli BL21 (DE3) Star, …
As to B1, the stoichiometry N (as a rule, a count of units in the complex or per binding partner) was determined as 2.
